These results are taken from PMC10873205 (Nature Structural & Molecular Biology, 2024).

Assay [1] has as its target T1, UBE2A (UniProt P49459 1-152).
T1 construct: also called UBE2A WT; source: E. coli BL21(DE3), purified (glutathione Sepharose 4B or Ni-NTA, SEC); not shown: GST (from the vector pGEX6P-3), N-terminal, cleaved
As to the kind of experiment: ITC; UBR4 construct in the cell (74 μM), UBE2A in the syringe at tenfold higher concentration; 25 °C; 0.4 µl then 13 injections of 3 µl; UBE2A into buffer subtracted; single site binding model. Particulars: both partners purified. (In general: ITC needs no label: the signal is the heat of the interaction.)

In assay [2] the target is UBE2A (UniProt P49459 1-152). The description is as above. Particulars: both partners purified.

Numbering of substitutions follows the chain as printed. Names may count otherwise.

B1: UBR4_(xtal) (UBR4 residues 4,730–5,183) (domain or fragment)
chain: AIQHPGTQVLIGTDSIPNLHKLEQVSSDEGIGTLAENLLEALREHPDVNKKIDAARRETRAEKKRMAMAMRQKALGTLGMTTNEKGQVVTKTALLKQMEELIEEPGLTCCICREGYKFQPTKVLGIYTFTKRVALEEMENKPRKQQGYSTVSHFNIVHYDCHLAAVRLARGREEWESAALQNANTKCNGLLPVWGPHVPESAFATCLARHNTYLQECTGQREPTYQLNIHDIKLLFLRFAMEQSFSADTGGGGRESNIHLIPYIIHTVLYVLNTTRATSREEKNLQGFLEQPKEKWVESAFEVDGPYYFTVLALHILPPEQWRATRVEILRRLLVTSQARAVAPGGATRLTDKAVKDYSAYRSSLLFWALVDLIYNMFKKVPTSNTEGGWSCSLAEYIRHNDMPIYEAADKALKTFQEEFMPVETFSEFLDVAGLLSEITDPESFLKDLLNSVP
notes: UBR4, human, residues 4,730–5,183 (runs to the native C-terminus); holds the unresolved N-terminal region, the hemiRING zinc finger and the UZI subdomain; The GST tag is said to be cleaved for crystallization and autoubiquitination assays; Cloning strategy is in Supplementary Data 1; also called UBR4_(4730–5183); hemiRING-UZI module construct; source: E. coli BL21(DE3), purified (glutathione …)
Broadly, the Kd is the constant that tells how readily two partners part at equilibrium. A higher Kd goes with lower affinity. As to B1, the affinity with UBE2A [1], expressed as Kd, was 1.19 µM.

B2: UBR4_(xtal) Ser4930Arg (domain or fragment)
chain: B1 chain with S201R
notes: also called UBR4 Ser4930Arg; S4930R; source: E. coli BL21(DE3), purified (glutathione sepharose 4B, SEC)
For B2, the binding result in the assay with UBE2A [1] is “binds”.

B3: UBR4_(4828–5183) (domain or fragment)
chain: EELIEEPGLTCCICREGYKFQPTKVLGIYTFTKRVALEEMENKPRKQQGYSTVSHFNIVHYDCHLAAVRLARGREEWESAALQNANTKCNGLLPVWGPHVPESAFATCLARHNTYLQECTGQREPTYQLNIHDIKLLFLRFAMEQSFSADTGGGGRESNIHLIPYIIHTVLYVLNTTRATSREEKNLQGFLEQPKEKWVESAFEVDGPYYFTVLALHILPPEQWRATRVEILRRLLVTSQARAVAPGGATRLTDKAVKDYSAYRSSLLFWALVDLIYNMFKKVPTSNTEGGWSCSLAEYIRHNDMPIYEAADKALKTFQEEFMPVETFSEFLDVAGLLSEITDPESFLKDLLNSVP
modifications: one Zn2+ bound (Cys4838, Cys4841, His4887, Cys4890). The C-terminal limit 5183 is taken from the Fig. 7 title and legend and the structure section; '4828-5130' in the ITC text is treated as a …
Molecule B3 had a Kd with UBE2A [2] of 89.8 µM.
